Assay results from the DeepSol protein solubility set.

test: soluble on expression in E. coli; label from the status in PepcDB or PDB records

Sequence	soluble on expression in E. coli
MSKVNEITRESWILSTFPEWGTWLNEEIEQTVVEPNTFSMWWLGCTGIWLKSAGNTNLSIDFWCGTGKKTQKNRLMNTQHQMMRMGGVEALQPNLRTSIFPLDPFAIKEIDAVLASHDHADHIDVNVAAAVLQNCGEHVKFIGPQACVDLWLGWGVPQERCIVAKVGDVLEIGDVKIRVLDSFDRTALVTLPKGVSSYDKAILDGMDERAVNYLIETSGGSVYHSGDSHYSNYYAKHGNDYQIDVALLSYGENPRGVTDKMTSSDVLRAAESLDCQVVVPFHHDIWANFQNDPREIEVLWNMKKDRLQYQFAPFFWQVGGKYTYPTDKGRMHYQHFRGFQDIFKNEPELPYKAFL	soluble
QSKDGSVRHSGDNRTGQGDGDDETITVDLTRLPAAVTTVIFSVNNYTGQDFGQVENAYCRLVNTQGGQEIARYNLSVQGNHSAMILASLKRQGGDWAMTAIGAPSR	not soluble
MAAKPILYSSWSSGCSSRVRTALALKKIDYEYQPVNLLNKQKEQEFHGNNPAEKVPILKINGLTLTESMAIIEYLDEIYPDPPLLPKEPELKARARAIAFHIASNIQPLQNKPIYLMLNEKEPGYGDFWCQHFISKGFKALEELLQMHSGDFCVGNQISIADICLPSIVYNAIEKYHVDMTPYPIITRISNKLAELPEFQVAHPNNQPDAPKN	not soluble
MLVCDFKTTCLNWVNVDDVVMGGVSNSAMQLTQDGTAVFAGNLSLENSGGFASVRTVLERRNYADFAGFRIRVKGDGKRYSFRARNDERFDGVVYKFDFETVPDEWMEIDLSFAGFIPSFRGRTLVDVPPLDSSNIVQIGLLVSNKQAGAFWLEIAWIEAYRADTVASSFRLEHHHHHH	soluble
AIAAEPIELLCWGGDWDLPSVQTDSLTVLAYAKFAGAELTVKFVDWTWRTITASVPQIHYEGTTVTEPTQILNFLRKQRFNADFELTAKQGADTMAYIALLEEKLRPALLHTFWVDAENYANLTRPWFTSHSPFPLNFFVPGRQASLALSRILLTKAESPLLNITEVEGKIYSEAKECLNLLSHRLGNFNFFFGDTPTSLDAFVFGHIAPLIKAPLPSGQLQKHLNQLDNLCQFCNTILKNYFTDATAEKRMDCSPTVAHDFVDANLQKLTQLVNKESNLIEKMDDNLRSSPQHRPHRHEAKPSAPASDRNSTPA	soluble
ASEKVEMNLVTSQGVGQSIGSVTITETDKGLEFSPDLKALPPGEHGFHIHAKGSCQPATKDGKASAAESAGGHLDPQNTGKHEGPEGAGHLGDLPALVVNNDGKATDAVIAPRLKSLDEIKDKALMVHVGGDNMSDQPKPLGGGGERYACGVIK	soluble
MSLSNFYKLLKEKFPRKEDIVTEMINLEAICQLPKGTEYFISDLHGEYDAVDYLLRTGAGSIRAKLLDCFDWQKIVAVDLDDFCILLYYPKEKLAFDKMNLSASAYKTKLWEMIPLQIQVLKYFSSKYTKSKVRKQLSGKFAYIIEELLAEIDRNPEKKSYFDTIIEKLFELDQVEDLIIVLSQTIQVLIIDHLHVVGDIYDRGRYPDRILNRLMAFPNLDIQWGNHDVTWMGAASGSYLCMVNVIRIAARYNNITLIEDRYGINLRRLVDYSRRYYEPLPSFVPILDGEEMTHPDELDLLNMIQQATAILQFKLEAQLIDRRPEFQMHNRQLINQVNYKDLSISIKEVVHQLKDFNSRCIDSKNPSRLTSEEEELLQQLMIAFQTSESLKKHIDFLFEKGSMYLTYNDNLLFHGCIPMHSNGDFKSFKIAGKTYGGRDLLDLFESQIRLAYARPEKHDDLATDIIWYLWCGENSSLFGKNAMTTFERYYVSDKVTHQERKNPYFKLRDKDDICTALLQEFDLPKFGHIVNGHTPVKEKNGEQPIKANGKMLVIDGGFAKGYQKNTGLAGYTLIYNSYGIQLISHLPFTSIEEVLSGTNYIIDTKRLVEEAKDRILVKDTTIGQKLTKEIKDLDHLYRHFQEYDEGHHHHHH	soluble
MGHHHHHHHHHHSSGHIDDDDKHMYTKIIGTGSYLPEQVRTNADLEKMVDTSDEWIVTRTGIRERHIAAPNETVSTMGFEAATRAIEMAGIEKDQIGLIVVATTSATHAFPSAACQIQSMLGIKGCPAFDVAAACAGFTYALSVADQYVKSGAVKYALVVGSDVLARTCDPTDRGTIIIFGDGAGAAVLAASEEPGIISTHLHADGSYGELLTLPNADRVNPENSIHLTMAGNEVFKVAVTELAHIVDETLAANNLDRSQLDWLVPHQANLRIISATAKKLGMSMDNVVVTLDRHGNTSAASVPCALDEAVRDGRIKPGQLVLLEAFGGGFTWGSALVRF	soluble
MSEIEELVCIEASVTRKSTSNTVEIRESRRNKVTLGSSDSPAFPTPHLFLKNIVSFDEQSMYNLLYPRLQDPNLCSILSFKIAFEAKRVPGPLYISYDVTLTPQIFEEPDMETCGLCLLEEQHLFDMPNCAHVFHGDCIDKWLSTSNNCPLCGVEIMDDDE	soluble
MGSDKIHHHHHHMIYIGLTGWGDHDELYTMGTKPSEKLYTYGSHFPTVEVDSSFYAIQPKRNMEKWASDTPDCFRFVVKAYQGLTGHQRGEIPFSSKEDMFAAFVESLQPLLESNKLAMVLFQFPPWFDCTKEHVRYLRYCKQQMGKIPVALEFRHQSWFRPSVRERTLSFMREEGWIHSICDEPQGGEGSVPTVLVPSNEENVLVRFHGRNVEGWRRPQEGNWREVRYLYRYSKEELAEWAEHLKQLAAQVKDVYVLFNNNSGGDAAANAKQMLELLEIEYHGLTPKQLNLFE	not soluble
MTTLLNPYFGEFGGMYVPQILMPALNQLEEAFVSAQKDPEFQAQFADLLKNYAGRPTALTKCQNITAGTRTTLYLKREDLLHGGAHKTNQVLGQALLAKRMGKSEIIAEVGAGNHGVASALASALLGLKCRIYMGAKDVERQSPNVFRMRLMGAEVIPVHSGSATLKDACNEALRDWSGSYETAHYMLGTAAGPHPYPTIVREFQRMIGEETKAQILDKEGRLPDAVIACVGGGSNAIGMFADFINDTSVGLIGVEPGGHGIETGEHGAPLKHGRVGIYFGMKAPMMQTADGQIEESYSISAGLDFPSVGPQHAYLNSIGRADYVSITDDEALEAFKTLCRHEGIIPALESSHALAHALKMMREQPEKEQLLVVNLSGRGDKDIFTVHDILKARGEI	soluble
MEYKDATHTTATQTVHYVNQDGDKVFDDDTSQTLNYERGVTIDEVTGEVISYGDWTPVDGDEFGSVTSPDKPGYAVDTKVVSGEKPEITNGKDGKVNDVEVTVTYTASNEDATLEHHHHHH	soluble
MAHHHHHHMLRLTQAVLRVQSHQKKRAQHPNAGTRFGRVYNRGFVRYGFGGFGMSVYSSKKDRTFKVMPVPPPPPATTAVEQRDDFADNRGLSATTRTLSPTFRMFALEDGGVLVSHPSHAQIMRWNQRVHTEEGKAANSTVMDEYVNSRIQAIIADNTIENTSLSQWRKAHMWNVIKSHGKLQRRWGTPDFVMGARSTLYNN	not soluble
MVVQVQPVEVDVESLVTRVFLKAIDLLGGLHKLAEYRTLTWLPSLARAAFVIVYREEFLKTEEEIAELVGLTRQTVRNILRADPELALYKIQHIDELTKEEKKELRVHTAGGIAKLAYKKVKEGEEPKVFLEFCTMAAEALEVPWAYLLLKKIKGTHFPINSPEELKEKVKGVVIKGMPAEEVVEKIEYPVKNPADLLHKIKIHLKMMGVE	soluble
EMDRRAALSGAAGAFMAACDEAVRELLLAMNFSDHDAEAIITGAAPPQLEHAASGVVSLVLRLKSSVLSHYIKHLNNAAARSQAAAASTAAVDGNAEDAADKHGAKATSAAKAPPAAGGGAGDAADQQLSTGEACLVQLQLYGGVGDALLQLLRSKLRGSACQLWALAHIVHPHPSRSEKESLAAYTGKSTKQVTDWFTNWRARHWRPAIMALQKGAAGGAAGGSLG	soluble
MGSDKIHHHHHHMPTPADDLVVIGKIVSVYGIRGEVKVYSFTDPLDNLLDYRRWTLRRDGEIRQAELVRGRLHGKVLAAKLKGLDDREEARTFTGYEICIPRSELPSLEEGEYYWHQLEGLKVIDQGRQLLGVIDHLLETGANDVMVVKPCAGSLDDRERLLPYTGQCVLSIDLAAGEMRVDWDADF	soluble
MSLNKIIHHYEVFKDFYGMEEPIEQIVGFLKHAAQGLEETKQVLYLLGPVGGGKSSIAEKLKDLMERIPFYAIKGSPVFESPLSLFNPLEDGELLRERFGIPTRYLRYLMSPWAVKRLQEYNGDISKFRVIKVKPSRLKQIAIAKTEPGDENNQDISSLVGKVDIRKLEEFSQDDPDAYSYSGGLCRANRGLLEFVEMFKAPIKVLHPLLTATQEGNYNATEGLSAIPFEGIILAHSNESEWQSFRNNKNNEAFIDRINIVKVPYCLRVSEEIKIYQKLIHNSSLANAPCAPGTLDMLAQFSVLTRLKEPQNSSIYSKMRVYNGESLKDTDPKAKSYQEYRDFAGVDEGMSGISTRFAFKILSKVFNFDHTEVAANPVHLMYVLERQIEQEQFPQELHETYLNFIKEYLATKYVDFIGKEIQTAYLESYSEYGQNIFDRYITYADFWIQDQDYRDPDTGEIFDRALLNLELEKIEKPAGISNPKDFRNEVVNFVLRARANNRGKNPVWNSYEKLKSVIEKKMFTNTEDLLPVISFNAKASEEDKKKHEEFISRMVEKGYTRKQVRLLCEWYLRVRKSQEGHHHHHH	not soluble
EPEEEQITVLENGSWLIDGDTPVNKLKYVLSVDSFPGEEQGYYLTIAGLIMYILQRIPKTGDHMEFNGLRYEVVDMDGIRIDKVMVTKVP	soluble
WTGEDSAEPNSDSAEWIRDMYAKVTEIWQEVMQRRDDDGTLHAACQVQPSATLDAAQPRVTGVVLFRQLAPRAKLDAFFALEGFPTEPNSSSRAIHVHQFGDLSQGCESTGPHYNPLAVPHPQHPGDFGNFAVRDGSLWRYRAGLAASLAGPHSIVGRAVVVHAGEDDLGRGGNQASVENGNAGRRLACCVVGVCGPGLWERQAREHSERKKRRRESECKAA	soluble
IHNSRWIMTPEVKEDCKMRLFCLPFAGGGALAYRSWCRYMPPEIELCAVQLPGRENRIKDEKFYDINLLIDELVLQILPYLDKPFALYGHSMGGLISFELARRIRKVKGLTPKILFFSGSKAPQLYDHTKDISHLPDELFLKAIKSFNGMPDMFWQDRELIEFKLPTLRADFSVLEGYNYYNEEPLECPISALCGENDKIISKKDMEALALQTKNQFKLRMFDGDHFFINTCRSKVLKSIIEDLN	not soluble
LISPDVDIEEITTRILEEAMGLTGSEQGFVATIDPLSRTLVIHTFSSMMDCLWQGGEEGRRILFPPGQDGSYPTLWGHSLNTKCPFYTNDPAGHPSAVGVPHGHIPLRHFLSVPVMLGDEVVAQISLANPGRDYTERDLEAIGRVAKFFALAIQRMRAEESIR	not soluble
MPVNNENLTSVLDARPFELSEEQKSPLFKANLLAELVHHYQCNEMYRKFCQKNKFDPLVFDGEVADIPPIPVHIFKAIGHKLSSVSDDTIKAKLQSSATSGVPSTILLDKVTARRQTRAMARVMQEVLGPKRRPFCIMDIDPTSPNATNLGARIAAVKGYLNFASTSKYFIDADSPSAPLEFLEQKFVEHLNSLASEEPLIIFGFTFVLYHTVFKTLKDKGISFQLPKGSQVIHIGGWKKLESEKVDKITFNRDIASVLGISPDDVVDIYGFTEQMGLNYPDCKAGWKHIHAYSDVIIRDESNLEVCGPGKVGLLEFVSPLPHSYPGNVVLTDDLGVIEESLCECGKAGKRFKVIGRAKKAEVRGCGDVMSEKLTKKPSYKPLSQQEERLTIYHSPIFLDDTMLEHHHHHH	soluble
MTTKEKVKALWQLCFDDNEEFVEMYFRLRYKNEINIAIESGDEIVSALQMIPYPMTFCGDTVQTSYISGACTHPDFRGNGVMRELLSQAFAKMLRNGTYFSTLIPAEPWLFDYYTRMGYASVFQYSVKEITVPEFIPSKEITVTSEIGCQKEVYEYLNSKLSGRTCCIQHSFEDFQVVMADLILSDGILVTARSENQINGLAIVYRRDKQLIISELFAETKDAEHSLLHHIKQFTGCRHMTQLLPPEKEQTQYPLGMARIINAKEVLQLYASAFPEDEMQLEVSDKQLSVNNGYYYLCNGKCMYSTERLPGAHIPMNISELTGRIFQALRPYMSLMLNK	not soluble
